Data reported in IntAct's records for PubMed 16696976.

B1: Amphiphysin (Homo sapiens), P49418 (parent)
chain: MADIKTGIFAKNVQKRLNRAQEKVLQKLGKADETKDEQFEEYVQNFKRQEAEGTRLQRELRGYLAAIKGMQEASMKLTESLHEVYEPDWYGREDVKMVGEKCDVLWEDFHQKLVDGSLLTLDTYLGQFPDIKNRIAKRSRKLVDYDSARHHLEALQSSKRKDESRISKAEEEFQKAQKVFEEFNVDLQEELPSLWSRRVGFYVNTFKNVSSLEAKFHKEIAVLCHKLYEVMTKLGDQHADKAFTIQGAPSDSGPLRIAKTPSPPEEPSPLPSPTASPNHTLAPASPAPARPRSPSQTRKGPPVPPLPKVTPTKELQQENIISFFEDNFVPEISVTTPSQNEVPEVKKEETLLDLDFDPFKPEVTPAGSAGVTHSPMSQTLPWDLWTTSTDLVQPASGGSFNGFTQPQDTSLFTMQTDQSMICNLAESEQAPPTEPKAEEPLAAVTPAVGLDLGMDTRAEEPVEEAVIIPGADADAAVGTLVSAAEGAPGEEAEAEKATVPAGEGVSLEEAKIGTETTEGAESAQPEAEELEATVPQEKVIPSVVIEPASNHEEEGENEITIGAEPKETTEDAAPPGPTSETPELATEQKPIQDPQPTPSAPAMGAADQLASAREASQELPPGFLYKVETLHDFEAANSDELTLQRGDVVLVVPSDSEADQDAGWLVGVKESDWLQYRDLATYKGLFPENFTRRLD
partner: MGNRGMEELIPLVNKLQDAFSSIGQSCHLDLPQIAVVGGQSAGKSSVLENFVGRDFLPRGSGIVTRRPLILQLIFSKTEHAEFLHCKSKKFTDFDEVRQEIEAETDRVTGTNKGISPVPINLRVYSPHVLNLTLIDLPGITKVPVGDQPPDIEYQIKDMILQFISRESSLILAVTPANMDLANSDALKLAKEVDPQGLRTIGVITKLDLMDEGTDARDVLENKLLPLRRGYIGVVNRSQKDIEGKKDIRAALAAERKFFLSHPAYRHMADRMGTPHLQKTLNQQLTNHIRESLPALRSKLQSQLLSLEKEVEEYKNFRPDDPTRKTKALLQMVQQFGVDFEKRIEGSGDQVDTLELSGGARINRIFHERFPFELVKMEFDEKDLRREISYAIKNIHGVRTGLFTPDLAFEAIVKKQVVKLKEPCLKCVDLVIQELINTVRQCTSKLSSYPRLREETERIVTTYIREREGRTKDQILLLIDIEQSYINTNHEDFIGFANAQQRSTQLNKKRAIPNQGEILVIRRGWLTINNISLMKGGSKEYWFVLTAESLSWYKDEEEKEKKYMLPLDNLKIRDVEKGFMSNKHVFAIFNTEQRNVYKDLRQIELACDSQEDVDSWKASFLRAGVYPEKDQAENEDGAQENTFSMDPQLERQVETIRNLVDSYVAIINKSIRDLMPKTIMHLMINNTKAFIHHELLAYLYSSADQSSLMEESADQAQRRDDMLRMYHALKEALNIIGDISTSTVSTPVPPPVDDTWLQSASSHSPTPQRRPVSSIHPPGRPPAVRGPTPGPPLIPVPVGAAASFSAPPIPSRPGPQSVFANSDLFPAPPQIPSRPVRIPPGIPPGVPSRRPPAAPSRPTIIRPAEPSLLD

Variants of: B1
Conditions: with dyn2_human DNM2, P50570

effect of a mutation on the interaction	Variant
disrupting interaction	P687L
disrupting interaction	G684R
